Assay: soluble on expression in E. coli; label from the status in PepcDB or PDB records

Question: Which “soluble on expression in E. coli” value does the source give for “MATRADEDGDTPLHIAVVQGNLPAVHRLVNLFQQGGRELDIYNNLRQTPLHLAVITTLPSVVRLLVTAGASPMALDRHGQTAAHLACEHRSPTCLRALLDSAAPGTLDLEARNYDGLTALHVAVNTECQETVQLLLERGADIDAVDIKSGRSPLIHAVENNSLSMVQLLLQHGANVNAQMYSGSSALHSASGRGLLPLVRTLVRSGADSSLKNCHNDTPLMVARSRRVIDILRGKATRPAS” here?
Answer: Its value is “soluble”.

Question: Which “soluble on expression in E. coli” value does the source give for “MAHHHHHHMSFVVIRLLEVLPTQVRTQLTANAEYVVSVSSAQRLSTFCSQGPYAATRLQLSDFDGAARLWEPQWNVVEALPATKEVHDVSRVCAVYRGNSGVTAFAFIDEHGTVLATTRWVDCALSTVSGRERAVLQAAQLRKLFTQCRPTVMAIGASSIACLPLLRTLETFLREQVHQSAVVDVPVVWASVEVPRYYSVTTYARLELPQTENIVVTSVALARYVQDPLQVLCSLFEGEQTALQLCRTIRISASHDRQLYQASGVGDEPVGGGGGPVGRRYCVPPQHCRDAAVCSRPRPRQSACVGQCHPSLRRSAKSTASGAASGTLRGRHRAERRAGAARSLAGAMRRGAPVAPSRCNADPVAVVRDRLFGGKGDCLLIDAAGRSVASRAAWNGAGGAPGCTLPRRRAFYGCQGQGECGGPGRRGSS” here?
Answer: The value was “not soluble”.

Question: For “GQLAQDGVPEWFHGAISREDAENLLESQPLGSFLIRVSHSHVGYTLSYKAQSSCCHFMVKLLDDGTFMIPGEKVAHTSLDALVTFHQQKPIEPRRELLTQPCRQKD”, which “soluble on expression in E. coli” value is on record?
Answer: The value was “soluble”.

Question: With “MGSDKIHHHHHHMSATKIDAVYLDADVTAYKGNPFIEALPPLQESVNSAAALRSTSLFDASDLQKPRVVRAHSICRITNDFFQPLGSHMLLSERVSLMIRGGYVGRNPKTGDLQRHLQNGYERVQSGDLSSFRFEEAKSTAQSMLLIGCSGSGKTTSLARILDTYPQVIYHPTMNFEQVVYLKVDCSHNGSLKEICLNFFRALDKALGSNYEKKYGLKRNGIETMLALMAQIANAHAVGLLVIDEIQHLSRAKSGGPEAMLNFFVTMVNTIGVPVMLIGTPKAREIFEIDLRSARRGSGLGAIFWEPMKQGPNGKRNPEWAAFTDNLWKQQLLQSKDLVLTDDLRDLWYDLSQGVMDTVVKLFVLSQLRALALGKERLTPGLMKQVYKDELKPVHPMLEALRSGVPEKIAQYSDLMLPEMDKRLIQLQRDIAGMKVETPEELALKQLATDDERRIYLMLKDDYDSSLLVATVRKAFAENPKLTRPQLLPVILNWLSDTDNPVKPEQPKTQVKNTKPDQWDTLDWDDLRYISSQQQSAAAMHSALGTKGLLFDLRRRMT” as the sequence, how does the “soluble on expression in E. coli” value read?
Answer: The value was “not soluble”.

Question: For “RFEHSLGVYHLADRALAHLDISGTRADTVRAAALLHDIGHGPYGHQTEGIIQRRLDRHHDDVAHLVSNGEPGAVLAAHGLDPDRVAALVAGHGKLGQLVAGELDVDRMDYLVRD”, which “soluble on expression in E. coli” value is on record?
Answer: The value was “soluble”.

Question: Which “soluble on expression in E. coli” value does the source give for “MGSDKIHHHHHHMRWIAPTEKDVAAATLEKRLWAAADELRANSGLKSAEYSQPILGLIFLKFADARFAVRRAELAKVTTGRRGSRVDDPASYHAEGVLFLASEARFSELLEFPEGGRDGKTLGQAVDDAMRAVERDNEQLAGVLPKTYQQFKARPLKELLKAFSAIPVDLEGDSFGKIYEYFLGEFAMAEGQGGGEFYTPQPIVRLMVEILEPFKGRVLDPACGSGGMFVQSARFVSEHKKNGGLAIHGVEKVDTTGQLCRMNLAVHGLEGDIRHGGEINSYYDDPHNAVGRFDFVLANPPFNVDKVDKDRIRDAVGPGRRFPFGVPNVDNANYLWIQLFYSALNESGRAGFVMASSAPDARASEQELRRKLIESRAVDVIISVGSKMFYTVALPCTLWFLDRGKPKDRRDKVLFIDAQHIYRQVDRAHRDWTEAQIGFLANVARLFRREEVDLTFGGAEAKYRLREVFGNKPTYADVAGFCKAATISEIEKQAWSLNPGRYVGAAQGEEVSDEDFRTQFEGLAEEFETLTAEAREFEKVITKTAAEILG” here?
Answer: The value was “not soluble”.

Question: With “MGSDKIHHHHHHMITSVAVVGCGWFGLPLAKALLSQGLKVTGSKRSPQEAEALSADGITGFALDLETLESEDLSSQTREAITQGLACDAIVINIPPGLRRGDNGYLDRLKRLKALMGTHEYQRIIFISTSGVYPAGGDSSGSGCVESDAKVHSPASETLLAAEALFSGANSADGVSNNHSDGSESNNSCVVVRFAGLIGPKRHPGRFLAGREDVPGGNLAVNMVHLDDCIGAVTLLLKAEGALSPAYNLCAPLHPTKAEFYQKAATQQGLTPPSFIEGDLAEDKRVDGGLITRELNYQYKFTDPLAMLTHC” as the sequence, how does the “soluble on expression in E. coli” value read?
Answer: Its value is “not soluble”.

Question: Which “soluble on expression in E. coli” value does the source give for “MPGAPSFIALDWGTSSLRAWRFGESPNPQEKREFPWGIMKLPSQAATREDAFHDTFLRVCGDWLAQTPCPVLACGMLGSAQGWQSAAYLPCPVTLEGLAKQLTPVIHQQQTMLHIIPGVIKEGEMPEVMRGEETQIFGAISMEPALQNAIHQGMPVLIGLPGTHAKWAVVENNTITDFRTFMTGELFDVLSRHSILGATMHPGDEPHWDAFTHGLTAAQEHHQTGLLSTLFSTRSRLLTSNLTSSSQGDYLSGLLIGHELCGLASSLLRDLPATTPIALIGSANLNSRYSQAFSHVFPGRQIHAIPNATEQGLWRIAHAAGLLSTNARECTHAI” here?
Answer: Its value is “not soluble”.

Question: Which “soluble on expression in E. coli” value does the source give for “MSETVKLDVGGTIFKTSRSTLTKFNGFFKTMLESDIGLKIDESGSIFIDRSPKNFDLILNFMRDGDVVLPNCELKLKELLVEAQFYLLDGLIELCNSKIELVEAPKIKLRFIESDEQFLQILAVQQKPMLIIEFCMVGNDMSIPYNFNLYEFMEKYSHQFDIYFRKFFVHYPHKIVNSERLSEDEPSRKWKARIKWKPTENGYYSQFPHNLRINRGGRIIRDATFLERLEKMIGEFDEYLKKQRNR” here?
Answer: The value was “not soluble”.

Question: With “MAQTNLSFNPSPRYKSKKGWYKDTPPKEKGGMPTEVEIAGPIVIENKFIDPKTNTEKLIITDEDQKEIVESSDILTTQKLPSLMKYGFSINEKYTKDLGYALQQMRNQLPISYLYEGVGILETPFGPIVSLSEIYTTKEFDNKSPSDAICDNAYDLTPKGTFDNWFNMYLKEVKGSLLLELAVVFGISALVTSFLKHKHETEFAGIIFSFTGQSSTGKSTAASLAVSVAGNPTKGNETLFRNWNATRNALEGYLSNNFGIPIVFDELSSATFRDTTGLLYSITEGQGRQRSNVHGEVKTPKNWGTSVISTSEHSIFNDSAQNDGLRVRTIEINEQFTTNATNADNIKKAVALNYGHVLPLVAKYLINREDEVIQWFYKEVDWFEAKLKDDKSNTGNRMFKRYAVITTSAKILGRVLATDIDIAKIRDYFIDYHGHTISERSLADKAIDVIIQFVAQNRGKFSDEGALKNMFENYGLISLKDDHIEVKMIANVFKQMLNNHQFQDVNNVVNALRDKGFILADRGRQTTKRSVKDNSGKKQSLVFYHLKLDVEFASILGLTKDKSLIQNWTPANDNKAAKELFKSANEGIGPSGVHEDFLEHHHHHH” as the sequence, how does the “soluble on expression in E. coli” value read?
Answer: Its value is “not soluble”.

Question: Which “soluble on expression in E. coli” value does the source give for “MAHHHHHHMEDTINVFGRGTPAGEAIYRCYVAPSKPSTLDPQLAALLARRRQEREAAEAAQAHPKPIPKSKAPVHRPRVGMGKRPTEEEYARWRLQHIPHRRSKAAIEAEEEAHRWVPPPVSERFARPAITDAEKDRLADVMAYGAELPKPKEFTGVQRARFHRLEPRAELEDRFTKLRQTAQEVQSELAQLRQSAPGAGASLPSGGRVVESVSDPQARLSQRRSCGGGGDPATASPCPLASAASPGAAAARDVLSIGGTRVGRQGDSKMSTIERCRQERELQSHLGTVIAEMEAVDRELNRLPISS” here?
Answer: Its value is “soluble”.

Question: Which “soluble on expression in E. coli” value does the source give for “MAKVIRNRWVYRTDNKWTRYLPRRNDAVKEFDYDKNGASLKHYTEEISEEMRPKQASKLWMAWLYRDTSAEPKWTKKHVENLFGADFKVGRMEVFRNTELINTELWKIKHLIELRPVEFKNGVEPTEDDIFSTSLAPNGQCEVIQGGHVASENDLKLADGKQWTRKELGRDLNKKYHLYQSVYEQNVHTPNNITVVK” here?
Answer: The value was “not soluble”.

Question: For “MLTPERHQMILQLVKEQKVVKLQQLVERTESSESTIRRDLAQLEKQRLLKRVHGGAAVLTGKGQEPTMVEKSSKNIQIKQQIAKYAASVIEQGDCIYLDAGSTTFEMIPFLINKDVTVVTNGLMHIEALVENNIRAYLLGGMMKSRTKALIGAMAQESMQKYRFDKCFLGANGVHEQLGFTTPDPEEALLKQMALTLANEGYFLIDESKFSEVAFAKIANVEDANIITNHLEIDLEKYKQQTNVIEADKQLEHHHHHH”, which “soluble on expression in E. coli” value is on record?
Answer: Its value is “soluble”.

Question: Which “soluble on expression in E. coli” value does the source give for “MRLFFQHFLLFYAASAYNVSVNTNRSFLFGDVLEPLCSINVTGQNLTRSELIELFHKWEKYTSSQISSSSSISDYRKAMPCFPGPNLNLTSSNSDMIPQYPNCETFVNISKTTFGEANDLLEEVKKVRGVEQMDVSLKSVINSLSSRLQNLIDYLPDGATKNKTQERLSTLIEIGNQKLPETLRNSTRNQPPTQSTKSEFNPFELLSCFNISMMKTATVSGQTIGSIACSKFKLCSFSAVTSNPCLSNLRITEAQYDSVVNKTIAELIGEKLGGEQVQKKLGSAIGQFFGEHPRSKRTPKPRCENCTEEEYEDVTPLSDQVKMDGREELEESDDRSSGVESDESSGEVIDESYGKIDELDQEMSKRSTDSRKMSHEEITQAKIAKIRESIIDQLLTKTDDPDNSTDFQPTKRSAALEASQDNFKEALDNFRTEHIEDMTEGSGQESDRPTDSTKLYGSTQSPSEIIRPSIRTLNMETESSPVDFIENMSPISDSNDMDSSTVPNVAKKNNNFEKDLDAFRTVNNGSEKLNSSMFQELQTVLNLKLNSTMLEYAASFANISESLPKMSGEFTVSQFLQKMDINDWPTLKHLLNSMQSVFGNLPGFSQISNFIENLSSSGLDLKSVLKMIPAMNSSGTSLHKDAVLDLLNSFKSKISSSDTPKSPALEAAIQKISEASTLPTLLQNDLNSNDSSISDALNILKSNPLLSSLKI” here?
Answer: Its value is “soluble”.

Question: Which “soluble on expression in E. coli” value does the source give for “MGSDKIHHHHHHMTKSKNNPGRGNTIRESNTMKVMEEIREKIRKAIKEGVSLREIEEIILQEAMMEEREAYLEVEDDHKNGTYFRYLGTGDGVLRLRVPRTRKGGFRPKILPEKYERTSPDYEDFLQQLVLSGMTPSQVKAVLAAKGIPYSEIVMNRVAERISNKLKEYKSRELPHDLLALYIDVKIVKVRISESIMERAIYIAIGVDLEGNKFVLDYEVRDREDLDGWKSFLSGLVSRGVSRVDVIVSDDFSGLDRVVSTLFPSSQHQLCITHMVRNLMRVLPDKEKEELMIRVRDLKSSRNVEEGRKAILSLSQLVQPFSPARAKRLLDAADKYCSFLNFPREIRHYLYTNNTSESFNLTLARFEEELGGYFPSLRSLEVYLYVSIHESNSRWKFRPMSVIRHYSYHLKQLHASRFQVSLDEDF” here?
Answer: Its value is “not soluble”.

Question: With “MGSDKIHHHHHHMNQSNCIVAQSGGPTVAINASLAGVIAGVKSSEKYDICYGAVNGILGILNENYLNLSDIFADDANLEKLKTTPAMYLGSCRHKLPDYKDDDSPYVYIFHQFDKLSIKAFFYIGGNDSMDTVLKLSDYAKKINSDVKIIGIPKTIDNDLCMTDHTPGFGSAAKYIASSMLEIAHDTFIYAVKSVTIVEIMGRDAGWLTAASALARNEYNTAPQFIYLPEVNFDKDKFVADIKEALAHTNNVIVAVSEGIHDADGSYITSSKAACDQFGHQQLSGAGKALEFIVKENIGVKVRSVEVNVLQRCASHLASLTDIEESFAQGKKGVTIAAEGVTASMVCLKRISNKPYQVEYTYSAIKDIANEAKSVPREWINDAGNDVKPELIEYLKPLIQGETAVAYKNGLPDYMDVSHLHKCN” as the sequence, how does the “soluble on expression in E. coli” value read?
Answer: The value was “not soluble”.

Question: With “MSLDAAGLARSTFFYHQQRLNVPDKHIDLKEAIVEVFTRTNRRYGYRRIHAHLRQDGWNVNHKLVYKLMDELGLKSKVRAKKRYNAYQGTVSHIAENVLDRCFTPDKPNTVWTSDVTEFRIAGTKVYLSPIMDLYDRSIVSYSVSTSPNTAFTSRSLKDAITSQSPGSGLLVHTDQGIQYQHSSWRDLITSIDGIQSMSRKGNCYDNAVMENFFGHLKSEMHHGESFDGLEHFRQALDGYIHWYNHERIQKRLKGLAPMQYRNQTLEPLTAEGHHHHHH” as the sequence, how does the “soluble on expression in E. coli” value read?
Answer: The value was “not soluble”.

— the DeepSol protein solubility set
